B1: EPHB2 (protein)
chain: CNRRGFERADSEYTDKLQHYTSGHMTPGMKIYIDPFTYEDPNEAVREFAKEIDISCVKIEQVIGAGEFGEVCSGHLKLPGKREIFVAIKTLKSGYTEKQRRDFLSEASIMGQFDHPNVIHLEGVVTKSTPVMIITEFMENGSLDSFLRQNDGQFTVIQLVGMLRGIAAGMKYLADMNYVHRDLAARNILVNSNLVCKVSDFGLSRFLEDDTSDPTYTSALGGKIPIRWTAPEAIQYRKFTSASDVWSYGIVMWEVMSYGERPYWDMTNQDVINAIEQDYRLPPPMDCPSALHQLMLDCWQKDRNHRPKFGQIVNTLDKMIRNPNSLKAMAPLSSGINLPLLDRTIPDYTSFNTVDEWLEAIKMGQYKESFANAGFTSFDVVSQMMMEDILRVGVTLAGHQKKILNSIQVMRAQMNQIQSVEV
modifications: left off: a dimerising Fc or GST
B2: PRKCE (protein)
chain: MVVFNGLLKIKICEAVSLKPTAWSLRHAVGPRPQTFLLDPYIALNVDDSRIGQTATKQKTNSPAWHDEFVTDVCNGRKIELAVFHDAPIGYDDFVANCTIQFEELLQNGSRHFEDWIDLEPEGRVYVIIDLSGSSGEAPKDNEERVFRERMRPRKRQGAVRRRVHQVNGHKFMATYLRQPTYCSHCRDFIWGVIGKQGYQCQVCTCVVHKRCHELIITKCAGLKKQETPDQVGSQRFSVNMPHKFGIHNYKVPTFCDHCGSLLWGLLRQGLQCKVCKMNVHRRCETNVAPNCGVDARGIAKVLADLGVTPDKITNSGQRRKKLIAGAESPQPASGSSPSEEDRSKSAPTSPCDQEIKELENNIRKALSFDNRGEEHRAASSPDGQLMSPGENGEVRQGQAKRLGLDEFNFIKVLGKGSFGKVMLAELKGKDEVYAVKVLKKDVILQDDDVDCTMTEKRILALARKHPYLTQLYCCFQTKDRLFFVMEYVNGGDLMFQIQRSRKFDEPRSRFYAAEVTSALMFLHQHGVIYRDLKLDNILLDAEGHCKLADFGMCKEGILNGVTTTTFCGTPDYIAPEILQELEYGPSVDWWALGVLMYEMMAGQPPFEADNEDDLFESILHDDVLYPVWLSKEAVSILKAFMTKNPHKRLGCVASQNGEDAIKQHPFFKEIDWVLLEQKKIKPPFKPRIKTKRDVNNFDQDFTREEPVLTLVDEAIVKQINQEEFKGFSYFGEDLMP
B3: PRKD1(PKD) (protein)
chain: MSAPPVLRPPSPLLPVAAAAAAAAAALVPGSGPGPAPFLAPVAAPVGGISFHLQIGLSREPVLLLQDSSGDYSLAHVREMACSIVDQKFPECGFYGMYDKILLFRHDPTSENILQLVKAASDIQEGDLIEVVLSASATFEDFQIRPHALFVHSYRAPAFCDHCGEMLWGLVRQGLKCEGCGLNYHKRCAFKIPNNCSGVRRRRLSNVSLTGVSTIRTSSAELSTSAPDEPLLQKSPSESFIGREKRSNSQSYIGRPIHLDKILMSKVKVPHTFVIHSYTRPTVCQYCKKLLKGLFRQGLQCKDCRFNCHKRCAPKVPNNCLGEVTINGDLLSPGAESDVVMEEGSDDNDSERNSGLMDDMEEAMVQDAEMAMAECQNDSGEMQDPDPDHEDANRTISPSTSNNIPLMRVVQSVKHTKRKSSTVMKEGWMVHYTSKDTLRKRHYWRLDSKCITLFQNDTGSRYYKEIPLSEILSLEPVKTSALIPNGANPHCFEITTANVVYYVGENVVNPSSPSPNNSVLTSGVGADVARMWEIAIQHALMPVIPKGSSVGTGTNLHRDISVSISVSNCQIQENVDISTVYQIFPDEVLGSGQFGIVYGGKHRKTGRDVAIKIIDKLRFPTKQESQLRNEVAILQNLHHPGVVNLECMFETPERVFVVMEKLHGDMLEMILSSEKGRLPEHITKFLITQILVALRHLHFKNIVHCDLKPENVLLASADPFPQVKLCDFGFARIIGEKSFRRSVVGTPAYLAPEVLRNKGYNRSLDMWSVGVIIYVSLSGTFPFNEDEDIHDQIQNAAFMYPPNPWKEISHEAIDLINNLLQVKMRKRYSVDKTLSHPWLQDYQTWLDLRELECKIGERYITHESDDLRWEKYAGEQGLQYPTHLINPSASHSDTPETEETEMKALGERVSIL
modifications: left off: a dimerising Fc or GST
B4: PRKD2(PKD2) (protein)
chain: MATAPSYPAGLPGSPGPGSPPPPGGLELQSPPPLLPQIPAPGSGVSFHIQIGLTREFVLLPAASELAHVKQLACSIVDQKFPECGFYGLYDKILLFKHDPTSANLLQLVRSSGDIQEGDLVEVVLSASATFEDFQIRPHALTVHSYRAPAFCDHCGEMLFGLVRQGLKCDGCGLNYHKRCAFSIPNNCSGARKRRLSSTSLASGHSVRLGTSESLPCTAEELSRSTTELLPRRPPSSSSSSSASSYTGRPIELDKMLLSKVKVPHTFLIHSYTRPTVCQACKKLLKGLFRQGLQCKDCKFNCHKRCATRVPNDCLGEALINGDVPMEEATDFSEADKSALMDESEDSGVIPGSHSENALHASEEEEGEGGKAQSSLGYIPLMRVVQSVRHTTRKSSTTLREGWVVHYSNKDTLRKRHYWRLDCKCITLFQNNTTNRYYKEIPLSEILTVESAQNFSLVPPGTNPHCFEIVTANATYFVGEMPGGTPGGPSGQGAEAARGWETAIRQALMPVILQDAPSAPGHAPHRQASLSISVSNSQIQENVDIATVYQIFPDEVLGSGQFGVVYGGKHRKTGRDVAVKVIDKLRFPTKQESQLRNEVAILQSLRHPGIVNLECMFETPEKVFVVMEKLHGDMLEMILSSEKGRLPERLTKFLITQILVALRHLHFKNIVHCDLKPENVLLASADPFPQVKLCDFGFARIIGEKSFRRSVVGTPAYLAPEVLLNQGYNRSLDMWSVGVIMYVSLSGTFPFNEDEDINDQIQNAAFMYPASPWSHISAGAIDLINNLLQVKMRKRYSVDKSLSHPWLQEYQTWLDLRELEGKMGERYITHESDDARWEQFAAEHPLPGSGLPTDRDLGGACPPQDHDMQGLAERISVL
modifications: left off: a dimerising Fc or GST
B5: EPHB1 (protein)
chain: SRKRAYSKEAVYSDKLQHYSTGRGSPGMKIYIDPFTYEDPNEAVREFAKEIDVSFVKIEEVIGAGEFGEVYKGRLKLPGKREIYVAIKTLKAGYSEKQRRDFLSEASIMGQFDHPNIIRLEGVVTKSRPVMIITEFMENGALDSFLRQNDGQFTVIQLVGMLRGIAAGMKYLAEMNYVHRDLAARNILVNSNLVCKVSDFGLSRYLQDDTSDPTYTSSLGGKIPVRWTAPEAIAYRKFTSASDVWSYGIVMWEVMSFGERPYWDMSNQDVINAIEQDYRLPPPMDCPAALHQLMLDCWQKDRNSRPRFAEIVNTLDKMIRNPASLKTVATITAVPSQPLLDRSIPDFTAFTTVDDWLSAIKMVQYRDSFLTAGFTSLQLVTQMTSEDLLRIGITLAGHQKKILNSIHSMRVQISQSPTAMA
modifications: left off: a dimerising Fc or GST
B6: PRKCZ (protein)
chain: MPSRTGPKMEGSGGRVRLKAHYGGDIFITSVDAATTFEELCEEVRDMCRLHQQHPLTLKWVDSEGDPCTVSSQMELEEAFRLARQCRDEGLIIHVFPSTPEQPGLPCPGEDKSIYRRGARRWRKLYRANGHLFQAKRFNRRAYCGQCSERIWGLARQGYRCINCKLLVHKRCHGLVPLTCRKHMDSVMPSQEPPVDDKNEDADLPSEETDGIAYISSSRKHDSIKDDSEDLKPVIDGMDGIKISQGLGLQDFDLIRVIGRGSYAKVLLVRLKKNDQIYAMKVVKKELVHDDEDIDWVQTEKHVFEQASSNPFLVGLHSCFQTTSRLFLVIEYVNGGDLMFHMQRQRKLPEEHARFYAAEICIALNFLHERGIIYRDLKLDNVLLDADGHIKLTDYGMCKEGLGPGDTTSTFCGTPNYIAPEILRGEEYGFSVDWWALGVLMFEMMAGRSPFDIITDNPDMNTEDYLFQVILEKPIRIPRFLSVKASHVLKGFLNKDPKERLGCRPQTGFSDIKSHAFFRSIDWDLLEKKQALPPFQPQITDDYGLDNFDTQFTSEPVQLTPDDEDAIKRIDQSEFEGFEYINPLLLSTEESV

The molecules below were run on kinases of Table 6 on Myelin Basic Protein (MBP) (assay: Kinase assay using MBP substrate, ProQ Diamond stain (Table 6)). Settings: kinase printed on MBP-coated slide; 20 uM ATP, 30° C.; ProQ Diamond Microarray Stain; graded Strong/Weak/Negative.
Type: biochemical
Summary of the method: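 Reactions ran at 30° C. with 20 uM ATP, 4 mM MgCl2 and 5% DMSO in HEPES pH 7.5, inhibitor added or omitted. Kinases had been arrayed onto slide-bound dephosphorylated bovine MBP; phospho-signal read after ProQ Diamond staining.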

Molecule	MBP Kinase Activity
B1	Strong
B2	Strong
B3	Weak
B4	Strong
B5	Strong
B6	Strong
